Legend:
[1] = test system: CcpA (Streptococcus pyogenes (group A Streptococcus; strain of the clone not stated here)); experiment: fluorescence polarization; details: CovR FP: 1 nM fluorescein DNA, 20 mM Tris pH 7.5, 50 mM NaCl, 2 mM DTT, 10 ug/mL poly(dI:dC), 25 C, CcpA FP as in ref 30 (buffer not given), with or without …
[2] = test system: CcpA;HPr-Ser46-P (Streptococcus pyogenes (group A Streptococcus; strain of the clone not stated here);Streptococcus pyogenes (group A Streptococcus)); experiment: fluorescence polarization; details: CovR FP: 1 nM fluorescein DNA, 20 mM Tris pH 7.5, 50 mM NaCl, 2 mM DTT, 10 ug/mL poly(dI:dC), 25 C, CcpA FP as in ref 30 (buffer not given), with or without …
[3] = biological target: CovR (unphosphorylated) (Streptococcus pyogenes MGAS5005 (serotype M1)) (UniProt O87527); experiment: fluorescence polarization; details: CovR FP: 1 nM fluorescein DNA, 20 mM Tris pH 7.5, 50 mM NaCl, 2 mM DTT, 10 ug/mL poly(dI:dC), 25 C; CcpA FP as in ref 30 (buffer not given), with or without …
[4] = biological target: CovR-P (phosphorylated) (Streptococcus pyogenes MGAS5005 (serotype M1)) (UniProt O87527); experiment: fluorescence polarization; details: CovR FP: 1 nM fluorescein DNA, 20 mM Tris pH 7.5, 50 mM NaCl, 2 mM DTT, 10 ug/mL poly(dI:dC), 25 C; CcpA FP as in ref 30 (buffer not given), with or without …
[5] = biological target: CovR (unphosphorylated) (Streptococcus pyogenes MGAS5005 …, UniProt O87527 1-228); experiment: fluorescence polarization; unphosphorylated; CovR FP: 1 nM fluorescein DNA, 20 mM Tris pH 7.5, 50 mM NaCl, 2 mM DTT, 10 ug/mL poly(dI:dC), 25 C; CcpA FP as in ref 30 (buffer not given), with or without 10; details: protein: recombinant, chain copies: 2, label: fluorescein

Molecule: speB cre
- Kd [1]: 100 nM
- Kd [2]: 5 nM

Molecule: nga/slo cre
- Kd [1]: 674 nM
- Kd [2]: 42 nM

Molecule: amyA cre
- Kd (nM (unit implied)) ([1]; no HPr-Ser46-P): 160
- Kd (nM (unit implied)) ([2]; 10 uM HPr-Ser46-P): 32

Molecule: hasA promoter probe
- Kd [3]: 2200 nM
- Kd [4]: 640 nM

Molecule: arcA cre
- Kd ([1]; no HPr-Ser46-P): 219 nM
- Kd ([2]; 10 uM HPr-Ser46-P): 18 nM

Molecule: spyCEP cre
- Kd [1]: 257 nM
- Kd [2]: 33 nM

Molecule: CAACCAAACTCTCATTAGAAACCCCCCTTTCTAATGAGAGTTTGGTTG (structured_DNA) [amyA promoter probe]
- Kd ([5]; hairpin (21 bp stem, C6 loop)): 245 nM

Molecule: ACAAAAACCAATTAGAAAGACCCCCTCTTTCTAATTGGTTTTTGT (structured_DNA) [arcA promoter probe]
- Kd ([5]; hairpin (20 bp stem, C5 loop)): 637 nM
